Source: paper PMC10611554, “AcbHLH144 transcription factor negatively regulates phenolic biosynthesis to modulate pineapple internal browning”

Target: T1, GST-AcbHLH144 (pineapple, UniProt A0A6P5FRB5 1-240)
T1 sequence: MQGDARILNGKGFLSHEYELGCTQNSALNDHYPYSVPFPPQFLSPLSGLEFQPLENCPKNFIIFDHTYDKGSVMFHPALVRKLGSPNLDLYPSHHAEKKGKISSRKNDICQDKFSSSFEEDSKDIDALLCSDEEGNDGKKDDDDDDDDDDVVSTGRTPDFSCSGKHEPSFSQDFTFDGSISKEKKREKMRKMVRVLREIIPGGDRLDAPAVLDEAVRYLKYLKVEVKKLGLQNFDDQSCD
Test: EMSA; Chemiluminescent EMSA Kit (Beyotime); buffer, salt, pH and temperature not stated
Conditions: protein: recombinant; tags: N-terminal GST (pGEX-4T-1); chain copies: 2; label: biotin; blunt

B1: Ac4CL5 promoter N-box probe (dsDNA)
DNA 1: CGGAGCACCTGCCCCTGCACGAGTACTGCTTCGAGCAGCT
DNA 2: AGCTGCTCGAAGCAGTACTCGTGCAGGGGCAGGTGCTCCG
  binding result: binds
